Results from publication PMC10462622.

What was measured:
[1] = target: HIV-1 NL4-3 Vif N48H (residues 1-176) (HIV-1 (pNL4-3)) (UniProt P12504)
[2] = target: HIV-1 pNL4-3 Vif N48H/R93E, expressed in HEK293T (HIV-1 (pNL4-3)) (UniProt P12504)

human A3H K97Q/E70R, expressed in HEK293T (natural protein)
Vif-mediated degradation assay: resistance of A3H to Vif (+N48H), Western blot [1]: 40%

human A3H haplotype II K97Q (MBP tag cleaved) (natural protein)
Vif-mediated degradation assay: increase of the A3H level in the presence of the Vif mutant, Western blot [2]: 70%
